This is an account of results in the Immune Epitope Database (IEDB).

The target in experiment [1] is HLA-A*26:03. Briefly: IEDB peptide-MHC binding, purified MHC/competitive/fluorescence; filed as Kd, often an IC50 or EC50 that approximates it; ≥ and ≤ were set here for values at or beyond the usual limits of such assays. Particulars: source organism: Vaccinia virus Copenhagen.
In experiment [2] the target is HLA-A*02:03. The description is as above. Particulars: source organism: Vaccinia virus Copenhagen.
Experiment [3] has as its target HLA-A*02:01. Described as above. Particulars: source organism: Vaccinia virus Copenhagen.
Experiment [4] deals with HLA-B*57:01. Briefly: IEDB peptide-MHC binding, purified MHC/direct/fluorescence; filed as Kd, often an IC50 or EC50 that approximates it; ≥ and ≤ were set here for values at or beyond the usual limits of such assays.
Experiment [5] deals with HLA-A*03:01. Described as above.
Experiment [6] concerns the target HLA-A*31:01. Described as above.
Experiment [7] addresses HLA-B*18:01. The experiment is described as above.
The target in experiment [8] is HLA-B*08:03. The experiment is described as above. Particulars: source organism: Variola virus.
Experiment [9] addresses HLA-B*15:17. The experiment is described as above.
For experiment [10], the target named is HLA-A*26:02. Described as above. Particulars: source organism: Variola virus.
The target in experiment [11] is HLA-B*08:01. The description is as above.
Experiment [12] addresses HLA-A*11:01. The experiment is described as above.
Experiment [13] concerns the target HLA-A*01:01. The experiment is described as above.
Experiment [14] has as its target HLA-B*07:02. The description is as above.
In experiment [15] the target is HLA-B*40:01. The experiment is described as above.
Experiment [16] deals with HLA-B*46:01. The description is as above.
Experiment [17] addresses HLA-B*15:01. The description is as above.
Experiment [18] addresses HLA-A*69:01. The experiment is described as above.
In experiment [19] the target is HLA-B*58:01. Described as above.
The target of experiment [20] is HLA-A*68:02. The experiment is described as above. Particulars: source organism: Camelpox virus M-96.
In experiment [21] the target is HLA-B*48:01. The experiment is described as above.
The target of experiment [22] is HLA-A*02:50. Briefly: IEDB peptide-MHC binding, purified MHC/competitive/fluorescence; filed as Kd, often an IC50 or EC50 that approximates it; ≥ and ≤ were set here for values at or beyond the usual limits of such assays.
Experiment [23] addresses HLA-A*02:01. Briefly: IEDB peptide-MHC binding, purified MHC/direct/fluorescence; filed as Kd, often an IC50 or EC50 that approximates it; ≥ and ≤ were set here for values at or beyond the usual limits of such assays.
The target in experiment [24] is HLA-B*51:01. Briefly: IEDB peptide-MHC binding, purified MHC/competitive/fluorescence; ≥ and ≤ were set here for values at or beyond the usual limits of such assays. Particulars: source organism: Taeniopygia guttata.
The target of experiment [25] is HLA-A*02:01. The description is as above. Particulars: source organism: Taeniopygia guttata.
In experiment [26] the target is HLA-B*45:06. Briefly: IEDB peptide-MHC binding, purified MHC/competitive/fluorescence; filed as Kd, often an IC50 or EC50 that approximates it; ≥ and ≤ were set here for values at or beyond the usual limits of such assays.
Experiment [27] addresses HLA-B*15:42. The description is as above.
For experiment [28], the target named is HLA-B*27:20. Described as above.
Experiment [29] deals with HLA-A*68:23. The experiment is described as above. Particulars: source organism: Sudan ebolavirus.
Experiment [30] deals with HLA-B*83:01. The experiment is described as above.
The target in experiment [31] is HLA-A*29:02. Briefly: IEDB peptide-MHC binding, purified MHC/direct/fluorescence; filed as Kd, often an IC50 or EC50 that approximates it; ≥ and ≤ were set here for values at or beyond the usual limits of such assays. Particulars: source organism: Sudan ebolavirus.
In experiment [32] the target is HLA-A*02:19. The experiment is described as above. Particulars: source organism: Coxiella burnetii Q321.
Experiment [33] addresses HLA-B*15:02. Briefly: IEDB peptide-MHC binding, purified MHC/competitive/fluorescence; filed as Kd, often an IC50 or EC50 that approximates it; ≥ and ≤ were set here for values at or beyond the usual limits of such assays. Particulars: source organism: Vibrio vulnificus CMCP6.
Experiment [34] addresses HLA-B*73:01. The description is as above.
Experiment [35] deals with HLA-B*51:01. Briefly: IEDB peptide-MHC binding, purified MHC/direct/fluorescence; filed as Kd, often an IC50 or EC50 that approximates it; ≥ and ≤ were set here for values at or beyond the usual limits of such assays. Particulars: source organism: Giardia lamblia ATCC 50803.
For experiment [36], the target named is HLA-B*15:09. The description is as above. Particulars: source organism: Giardia lamblia ATCC 50803.
Experiment [37] concerns the target HLA-A*30:01. The experiment is described as above. Particulars: source organism: Giardia lamblia ATCC 50803.
For experiment [38], the target named is HLA-A*26:01. The description is as above. Particulars: source organism: Giardia lamblia ATCC 50803.
Experiment [39] addresses HLA-B*27:05. The experiment is described as above. Particulars: source organism: Giardia lamblia ATCC 50803.
Experiment [40] concerns the target HLA-C*06:02. Described as above. Particulars: source organism: human gammaherpesvirus 4.
[41] abbreviates: source organism: Camelpox virus M-96.
[42] abbreviates: source organism: Mycobacterium tuberculosis.
Where [43] appears, read: source organism: Mycobacterium tuberculosis H37Ra.
Setting [44] is: source organism: Sudan ebolavirus.
The mark [45] stands for this setting: source organism: Coxiella burnetii.
The mark [46] stands for this setting: source organism: Listeria monocytogenes HPB2262.
The mark [47] stands for this setting: source organism: Giardia lamblia ATCC 50803.
Where [48] appears, read: source organism: human gammaherpesvirus 4.

With GLYRLNFRR, the Kd – broadly, a measure of binding affinity in units of concentration – in [1] was no less than 20 µM; in [2], no less than 20 µM; in experiment [3] it was 0.966 µM; in experiment [4] (setting [41]), no less than 20 µM; in experiment [5] (setting [41]), 0.242 µM; in experiment [6] (setting [41]) it was 0.0017 µM. The Kd in experiment [7] (setting [41]) is no less than 20 µM; in [8], no less than 20 µM; in [9] (setting [41]), no less than 20 µM; in [10], no less than 20 µM; in [11] (source organism: Variola virus), no less than 20 µM; in [12] (setting [41]), 0.237 µM. For the same sequence, the Kd in experiment [13] (setting [41]), in experiment [14] (setting [41]), in experiment [15] (setting [41]), in experiment [16] (setting [41]), in experiment [17] (setting [41]) and in experiment [18] (setting [41]) was no less than 20 µM in each case. Moreover, the Kd in experiment [19] (setting [41]), in experiment [20] and in [21] (setting [41]) was no less than 20 µM each time.
Take LLYEVDGDV: the dissociation constant (Kd) was 1.13 µM in [22] (source organism: Mycobacterium tuberculosis variant bovis BCG str. Pasteur 1173P2), no less than 20 µM in [18] (setting [42]) and no less than 20 µM in experiment [23] (setting [42]).
With FLLPILSQI, the IC50 (commonly the midpoint of a concentration-inhibition curve) is no less than 20 µM in experiment [24] and 0.0526 µM in experiment [25].
As to LEMQHLISL, the Kd in [26] (setting [43]) is no less than 5 µM; in experiment [27] (setting [43]), no less than 5 µM; in experiment [28] (setting [43]), 1.11 µM; in [15] (setting [42]), 0.0137 µM.
With CTSSIQYHR, the Kd in [26] (setting [44]) was no less than 5 µM; in experiment [29], 0.0038 µM; in [27] (setting [44]), no less than 5 µM; in experiment [30] (setting [44]), no less than 5 µM; in experiment [13] (setting [44]), no less than 20 µM; in experiment [31], 1.44 µM.
In the case of YQLGDYFFV, the Kd in experiment [22] (source organism: Coxiella burnetii Dugway 5J108-111) was no more than 0.0001 µM; in [18] (setting [45]) it was 0.0013 µM; in [23] (setting [45]) it was 0.0015 µM; in experiment [32] it was 0.002 µM.
AMRVGSSIM: in experiment [33], the Kd is 0.118 µM.
With FETMVFPAV, the Kd in [26] (setting [46]), in experiment [34] (setting [46]), in experiment [27] (setting [46]) and in [30] (setting [46]) was no less than 5 µM each time.
For KRPYVFVAA, the Kd in experiment [34] (source organism: Yersinia enterocolitica subsp. enterocolitica 8081) came out at 0.0685 µM.
On to RPALVVDTP, for which the Kd in experiment [4] (setting [47]), in experiment [5] (setting [47]), in [6] (setting [47]), in experiment [7] (setting [47]), in experiment [35] and in experiment [9] (setting [47]) was no less than 20 µM each time. In addition, the Kd in experiment [36], in experiment [11] (setting [47]), in experiment [12] (setting [47]), in experiment [13] (setting [47]), in [14] (setting [47]) and in experiment [37] was no less than 20 µM throughout. The Kd in [15] (setting [47]), in experiment [38], in experiment [39], in experiment [16] (setting [47]), in experiment [17] (setting [47]) and in [18] (setting [47]) was no less than 20 µM each time. In addition, the equilibrium dissociation constant (Kd) in experiment [23] (setting [47]), in experiment [19] (setting [47]) and in [21] (setting [47]) was no less than 20 µM throughout.
Turning to RRYASQTEL, the Kd in experiment [26] (setting [48]) was no less than 5 µM; in [27] (setting [48]), no less than 5 µM; in experiment [28] (setting [48]), 0.0002 µM; in experiment [30] (setting [48]), no less than 5 µM; in experiment [40] it was 0.021 µM.
